Reference: US12492252 (SHANDONG BOAN BIOTECHNOLOGY, dated 2025)
Numbering of substitutions follows the chain as printed.

T1: C-terminal fragment of the full length human GPC3 protein (human, UniProt P51654 359-554)
T1 construct: domain: C-terminal subunit (C-terminal fragment); also called C-terminal of GPC3; 30-kDa C-terminal subunit
T1 sequence (looked up): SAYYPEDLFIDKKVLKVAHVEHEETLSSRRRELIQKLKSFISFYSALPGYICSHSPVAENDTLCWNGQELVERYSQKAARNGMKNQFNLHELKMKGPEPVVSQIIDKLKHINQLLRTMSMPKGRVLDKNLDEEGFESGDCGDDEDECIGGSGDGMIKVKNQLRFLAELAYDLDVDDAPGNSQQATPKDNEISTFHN

B1: anti-human GPC3 IgG1 antibody clone 5 (antibody, V domains shown)
VH: CQSVEESGGRLVTPGTPLTLTCTVSGFSLSTYNMGWVRQAPGEGLEYIGTISSSTGNTYYATWAKGRFTISKTSSTTVDLKITNLTTEDTATYFCVRVNNMGDIWGPGTLVTVSL
VL: AIVMTQTPSSKSVAVGDTVTINCQASESVYKDNRLAWFQQKPGQPPKLLIYLASTLASGVPSRFKGSGSGTEFTLTISDVVCDDAATYYCGGYKDSLFDGFPFGGGTEVVVKR
B2: anti-human GPC3 IgG1 antibody clone 17 (antibody, V domains shown)
VH: CQSVEESGGRLVTPGTPLTLTCTVSGFSLSTYDMSWVRQAPGKGLEYIGWINSGGSPYYARWAKGRFTISKTSSTTVDLKMTSPTTEDTATYFCARHRSGYYGDIWGPGTLVTVSL
VL: DPVLTQTPSSVSAAVGDTVSINCQSSQNVYKNRLAWYQQKPGQPPKLLIYGASTLASGVPSRFKGSGSGTQFTLTISDLECDDAATYYCAGGYSTIVDNTFGGGTEVVVKR
B3: anti-human GPC3 IgG1 antibody clone 49 (antibody, V domains shown)
VH: CQSVEESGGRLVTPGTPLTLTCTVSGFSLSTYWMTWVRQAPGKGLEWIGIINPSGSAYYASWAKGRFTISKTSSATVDLKMTSLTAADTATYFCAGGGGMDPWGPGTLVTVSS
VL: DPVLTQTPSSVSAAVGGTVSISCQSSQSIVKNYLSWFQQKPGQPPKRLIYKASTLPSGVPSRFKGSGSGTEFTLTISDLECDDAATYYCAASYSDNIYVFGGGTEVVVKR
B4: anti-human GPC3 IgG1 antibody clone 40 (antibody, V domains shown)
VH: B3 VH with N52S, S54A, A86T
VL: B3 VL
notes: also called parental clone 40; chimeric anti-GPC3 clone 40
B5: anti-human GPC3 IgG1 antibody clone 8 (antibody, V domains shown)
VH: B3 VH with P17A, S54G
VL: B3 VL with V30I, Q39H, K51R, K64E
B6: anti-human GPC3 IgG1 antibody clone 41 (antibody, V domains shown)
VH: B3 VH with P17A, S54G, T72A
VL: B3 VL with V30I, Q39H, K51R, K64E, S77N
B7: anti-human GPC3 IgG1 antibody clone 22 (antibody, V domains shown)
VH: B3 VH with S54T, S56R
VL: B3 VL with S20T, S22N, I29V, V30Y, K31S, Q39K, P56V, K64V, D95G
B8: anti-human GPC3 IgG1 antibody clone 12 (antibody, V domains shown)
VH: B3 VH with Y58F
VL: B3 VL
B9: anti-human GPC3 IgG1 antibody clone 121 (antibody, V domains shown)
VH: B3 VH with S54A, A87V
VL: B3 VL with S20T, S28N, V30I, N32D, A52T, D95G
B10: anti-human GPC3 IgG1 antibody clone 74 (antibody, V domains shown)
VH: QCQSVEESGGRLVTPGTPLTLTYTVSGFSLNNYDMSWVRQAPGKGLQYIGWINSGGTAYYASWAKGRFTISKTSSTTVDLKMTSPTTEDTATYFCARHRYGYYGDIWGPGTLVTVSL
VL: DPVLTQTPSSVSAAVGGTVTINCQSSQNVYNNNRLAWYQQKLGQPPKLLIYFASKLASGVPSRFSGSGSGTQFTLTISGVQCDDAATYYCAGGYNTIVDNGFGGGTEVVVKR
B11: anti-human GPC3 IgG1 antibody clone 2 (antibody, V domains shown)
VH: B1 VH with V37I
VL: B1 VL with P45A
B12: anti-human GPC3 IgG1 antibody clone 122 (antibody)
heavy: not shown
light: DPVLTQTPSSVSAAVGGTVTINCQSSQNVYNNNRLAWYQQKPGQPPKLLIYFASKLASGVPSRFKGNGSGTQFTLTISGVQCDDAATYYCAGGYNSIVDNGFGGGTEVVVERTVAAPSVFIFPPSDEQLKSGTASVVCLLNNFYPREAKVQWKVDNALQSGNSQESVTEQDSKDSTYSLSSTLTLSKADYEKHKVYACEVTHQGLSSPVTKSFNRGECTS
B13: anti-human GPC3 IgG1 antibody clone 182 (antibody)
heavy: not shown
light: B12 light with G104A, E111K

molecular target: T1, C-terminal fragment of the full length …; assay: ELISA

Row | Binder | binding result
1 | B1 | binds

molecular target: T2, human GPC3 on cells (HepG2 cells expressing full length human GPC3; GPC3-transfected HEK293T cells) (human, UniProt P51654 25-554); assay: flow cytometry on HepG2 cells
T2 construct: whole, on cells; also called GPC3-expressing HepG2 tumor cells

Row | Binder | EC50 | HepG2 Cell binding (Fold ratio)
2 | B2 | 0.043 nM | 39.9 fold
3 | B3 | 0.012 nM | 115 fold
4 | B4 | 0.013 nM | 104 fold
5 | B5 | 0.012 nM | 79.5 fold
6 | B6 | 0.014 nM | 116 fold
7 | B7 | 0.013 nM | 121 fold
8 | B8 | 0.014 nM | 125 fold
9 | B9 | 0.0061 nM | 74.6 fold
10 | B10 | 0.0042 nM | 143 fold
11 | B11 | 0.0076 nM | 694 fold
12 | B12 | 0.0053 nM | 129 fold

molecular target: T3, human GPC3 protein (human, UniProt P51654 25-559); assay: screening of recombinantly expressed rabbit clones (before the change to human constant regions)
T3 construct: also called GPC3 antigen; human GPC3 proteins

Row | Binder | binding result
13 | B1 | binds

molecular target: T4, full length human GPC3 His (human, UniProt P51654 25-559, limits assumed); assay: SPR (Biacore T200), full length human GPC3 His immobilised, IgG1 in solution
T4 construct: also called full length human GPC3 protein; not shown: His tag

Row | Binder | Kd | RuMax | koff
14 | B2 | 0.2 nM | 10.7 | 0.0037 s⁻¹
15 | B3 | 0.9 nM | 1.7 | 0.0017 s⁻¹
16 | B4 | 0.6 nM | 2.4 | 0.0018 s⁻¹
17 | B5 | 0.1 nM | 3.7 | 0.00042 s⁻¹
18 | B6 | 1.3 nM | 1.49 | 0.0032 s⁻¹
19 | B7 | 1.6 nM | 2.9 | 0.00052 s⁻¹
20 | B8 | 0.6 nM | 1.4 | 0.0016 s⁻¹
21 | B9 | 0.5 nM | 2 | 0.0015 s⁻¹
22 | B10 | 0.02 nM | 24.3 | 0.00034 s⁻¹
23 | B11 | ~0.49 nM | 2 | 0.00039 s⁻¹
24 | B12 | 0.2 nM | 17.3 | 0.0018 s⁻¹
25 | B13 | 0.02 nM | 24.3 | 0.0019 s⁻¹
